# Laboratory results taken from patent publication US20210214458A1 (ONCOC4, published 2021).
# T1: N-SA-CD24 (CD24 stripped of N-glycan and sialic acid modifications) (not fully specified; N-glycans and sialic acid removed; O-glycans present; biotinylated in the Jurkat bispecific assays)
# T1 construct: also called SA-N-CD24; SA-N-
# T1 chain: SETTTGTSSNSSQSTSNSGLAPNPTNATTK
# Legend:
# CD24-GST fusion protein = biological target: T2, CD24-GST fusion protein; assay: ELISA on coated CD24-GST with expression media, relative to chimeric PP6373 (FIG. 28)
# T2 construct: also called biotinylated CD24-GST; not shown: GST (glutathione S-transferase) fusion partner
# Procedure: To select the best working combination of HuVH and HuVL for CD24 binding, different combinations were co-transfected into 293 cells for 72 hrs. Two ELISAs are then performed with expression media. ELISA 1: a 96 well plate was coated with purified goat-anti-human polyclonal IgG (GAH) and, after blocking, expression media or purified control IgGs were added, and goat-anti-human IgG-HRP was used as detection antibody. ELISA 2: a 96 well plate was coated with CD24-GST protein and, after blocking, expression media or purified control IgGs were added, and goat-anti-human IgG-HRP was used as detection antibody.
# [1] = biological target: T1, N-SA-CD24 (CD24 stripped of N-glycan …); assay: ELISA titration on coated Fc removed CD24 treated with NanA + N-glycanase (FIG. 8)
binding result (CD24-GST fusion protein),fold increase of binding against the parental antibody [1] [fold],Binder
binds,–,"H1L3 (humanized PP6373) (antibody, V domains shown, Tested as expression medium of co-transfected 293 cells) VH: EVQFVESGGGLVQPGGSLKLSCAASGVTFSEAWMDWVRQASGKGLEWVGEIRDKPNSYVTYYAESVKGRFTISRDDSKNTAYLQMNSLKTEDTAVYYCTGAMDYWGQGTLVTVSS VL: DIVMTQTPLSLSVTIGQPASISCKSSQSLLYSNGKTYLNWLLQKPGQSPKRLIYQVSKLDPGIPDRFSGSGSETDFTLKISRVEAEDVGIYYCMQGSSLPWTFGGGTKVEIKR"
–,~100,"PP6373 (affinity matured chimeric anti-CD24 antibody) (antibody, human IgG1, kappa, V domains shown, also called P3050.ComF1.2H1; H4069 + L4071) VH: EVKFEESGGGLVQPGGSIKLSCAASGVTFSEAWMDWVRQSPEKGLEWVAEIRDKPNSYVTYYAESVKGRFTISRDDSKSRVYLQMNNLRTEDTGIYYCTGAMDYWGQGTSVTVSS VL: DIVMTQTPLSLSVTIGQPASISCKSSQSLLYSNGKTYLNWLQQRPGQSPKRLIYQVSKLDPGIPDRFSGSGSETDFTLKISRVEAEDLGIYYCMQGSSLPWTFGGGTKLEIKR"
binds,–,"H4L3 (humanized PP6373) (antibody, V domains shown, Tested as expression medium of co-transfected 293 cells) VH: EVQFVESGGGLVQPGGSLKLSCAASGVTFSEAWMDWVRQASGKGLEWVAEIRDKPNSYVTYYAESVKGRFTISRDDSKSTVYLQMNSLKTEDTAIYYCTGAMDYWGQGTLVTVSS VL: DIVMTQTPLSLSVTIGQPASISCKSSQSLLYSNGKTYLNWLLQKPGQSPKRLIYQVSKLDPGIPDRFSGSGSETDFTLKISRVEAEDVGIYYCMQGSSLPWTFGGGTKVEIKR"
